Data as given in patent US20240059799A1 (Pfizer, published 2024).

What was measured:
[1] = target: T1, full-length human TL1A on CHO-K1 cells (human, UniProt O95150 1-251); assay: flow cytometry on CHO-K1 cells stably expressing full-length human TL1A, PE anti-human IgG, median fluorescent intensity
T1 construct: whole, on cells; also called cells over-expressing human TL1A
T1 sequence (looked up): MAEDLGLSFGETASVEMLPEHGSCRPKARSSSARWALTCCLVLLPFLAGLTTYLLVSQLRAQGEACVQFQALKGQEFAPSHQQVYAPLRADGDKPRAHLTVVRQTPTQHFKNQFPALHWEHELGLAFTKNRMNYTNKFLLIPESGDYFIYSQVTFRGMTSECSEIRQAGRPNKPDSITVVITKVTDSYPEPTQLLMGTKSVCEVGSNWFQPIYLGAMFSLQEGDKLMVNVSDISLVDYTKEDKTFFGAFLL
Description: A cell binding assay was performed to examine if the panel of [xTL1A] bivalent antibody variants could bind to human TL1A over-expressed on the cell surface. […] [xTL1A] bivalent antibody variants were incubated with cells on ice for 30-60 minutes at a concentration of either 1 μg/mL or 20 μg/mL. Cells were pelleted by centrifugation at 1500 RPM for 5 minutes at 4° C. and supernatant was discarded by aspiration. The cells were washed three times with DPBS with 4% FBS buffer as described. Cells were resuspended in 100 μL of PE-anti-human IgG (Life technologies Catalog number H10104) diluted 1:500 in DPBS with 4% FBS buffer and incubated on ice for 15 minutes. Cells were washed three times as described and resuspended in 200 μL of DPBS with 4% FBS buffer, then run on a flow cytometry instrument.

[2] = target: T2, recombinant human TL1A (human, UniProt O95150 71-251); assay: direct binding ELISA on plate-coated recombinant human TL1A (1 ug/mL), anti-human IgG-Fc HRP, OD450
T2 construct: Homotrimeric cytokine; biotinylated with Sulfo-NHS-biotin where captured for SPR, coated unlabelled in ELISA, soluble in bioassays; also called TNFSF15
T2 chain: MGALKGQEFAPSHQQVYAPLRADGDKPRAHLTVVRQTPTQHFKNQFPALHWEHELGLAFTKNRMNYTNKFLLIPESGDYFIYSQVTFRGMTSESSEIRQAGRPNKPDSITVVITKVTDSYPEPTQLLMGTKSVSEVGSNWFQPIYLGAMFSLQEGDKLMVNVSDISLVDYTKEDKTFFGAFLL
Description: (§1) For the direct binding ELISA, 96-well high binding plates (Corning, product number 3590) were coated with 1 μg/mL recombinant TL1A in 100 μL/well in PBS overnight at 4° C. Plates were then blocked in PBS+0.02% casein solution and washed with PBS+0.05% Tween-20 following standard ELISA protocol. […] Plates were washed with PBS+0.05% Tween-20 following a standard ELISA protocol, and goat anti-human IgG-Fc HRP conjugated secondary antibody (Pierce, catalog number 31413) diluted to 1:10,000 in assay buffer was added to plates and incubated for 1 hour at room temperature. Next, the plates were washed with PBS+0.05% Tween-20 following a standard ELISA protocol, and then TMB substrate (BioFX Laboratories, catalog number TMBW-0100-01) was added to the plates. Reactions were stopped after approximately 5 minutes by adding 0.18 M ortho-phosphoric acid to each well and absorbance was read at 450 nm.

[3] = target: T2, recombinant human TL1A; assay: SPR, recombinant human TL1A
[4] = target: T3, bovine serum albumin (bovine, UniProt P02769 25-607); assay: direct binding ELISA on plate-coated BSA (1 ug/mL), anti-human IgG-Fc HRP, OD450
T3 construct: also called BSA
Description: as §1, with “ELISA method to HSA or BSA,” for “ELISA,”, “HSA or BSA” for “TL1A”, “following” for “following a”, “#31413)” for “catalog number 31413)”, “to” for “to the”, “plates.” for “plates. Reactions were stopped after approximately 5 minutes by adding 0.18 M ortho-phosphoric acid to each well and absorbance was read at 450 nm.”
(§2) Reactions were stopped after approximately 5 minutes by adding 0.18 M ortho-phosphoric acid to each well and absorbance was read at 450 nm. […] For this method, samples diluted to 0.3 mg/mL were dispensed into the sample tray of a MicroCal VP-Capillary DSC with Autosampler (Malvern Instruments, Inc.), equilibrated for 5 minutes at 10° C. and then scanned up to 110° C. at a rate of 100° C. per/hour. A filtering period of 16 seconds was selected. Raw data was baseline corrected and the protein concentration was normalized. Origin Software 7.0 (Origin Lab Corporation, Northampton, MA) was used to fit the data to an MN2-State Model with an appropriate number of transitions.

[5] = target: T2, recombinant human TL1A; assay: cell-based or functional assay
[6] = target: T4, human serum albumin (human, UniProt P02768 25-609); assay: direct binding ELISA on plate-coated HSA (1 ug/mL), anti-human IgG-Fc HRP, OD450
T4 construct: also called HSA
Description: as §1, with “ELISA method to HSA or BSA,” for “ELISA,”, “HSA or BSA” for “TL1A”, “following” for “following a”, “#31413)” for “catalog number 31413)”, “to” for “to the”, “plates.” for “plates. Reactions were stopped after approximately 5 minutes by adding 0.18 M ortho-phosphoric acid to each well and absorbance was read at 450 nm.”
as §2

T3 sequence (P02769 25-607 limits assumed): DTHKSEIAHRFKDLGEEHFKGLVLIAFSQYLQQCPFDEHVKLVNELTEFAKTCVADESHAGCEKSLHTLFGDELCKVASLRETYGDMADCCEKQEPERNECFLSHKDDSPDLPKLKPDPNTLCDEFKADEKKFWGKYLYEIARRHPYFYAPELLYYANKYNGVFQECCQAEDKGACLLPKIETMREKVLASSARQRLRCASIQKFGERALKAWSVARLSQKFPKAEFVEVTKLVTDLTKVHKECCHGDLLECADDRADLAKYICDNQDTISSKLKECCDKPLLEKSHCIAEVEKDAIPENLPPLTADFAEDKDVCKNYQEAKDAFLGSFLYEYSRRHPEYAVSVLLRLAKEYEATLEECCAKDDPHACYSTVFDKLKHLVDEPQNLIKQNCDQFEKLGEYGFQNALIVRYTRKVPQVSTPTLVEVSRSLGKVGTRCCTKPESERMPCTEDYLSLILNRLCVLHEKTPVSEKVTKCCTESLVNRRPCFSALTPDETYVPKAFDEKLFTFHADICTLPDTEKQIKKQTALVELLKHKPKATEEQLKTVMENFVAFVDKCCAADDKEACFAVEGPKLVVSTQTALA

B1: [xTL1A]-0336 (antibody, human IgG1, kappa, V domains shown)
VH: QVQLVQSGAEVKKPGASVKVSCKASGYTFTSYGISWVRQAPGQGLEWMGWISAYNGNTNYAQKLQGRVTMTTDTSTSTAYMELRSLRSDDTAVYYCARESYYGSEAFRAGMDVWGQGTTVTVSS
VL: DIQMTQSPSSLSASVGDRVTITCRASQSVSSYLAWYQQKPGKAPKLLIYDASNRATGVPSRFSGSGSGTDFTLTISSLQPEDFATYYCQQRSNWPWTFGQGTKVEIKR
notes: bivalent disabled antibody, IgG1 effector-function-minimized/kappa
[1]
  binding result: no binding (tested: 20 ug/mL)
[2]
  binding result: no binding (tested: 33.3 nM)

B2: [xTL1A]-0352 (antibody, human IgG1, kappa, V domains shown)
VH: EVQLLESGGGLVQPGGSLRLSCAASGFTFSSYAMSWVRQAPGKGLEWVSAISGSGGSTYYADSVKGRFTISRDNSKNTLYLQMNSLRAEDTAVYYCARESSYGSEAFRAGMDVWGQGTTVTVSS
VL: DIQMTQSPSSLSASVGDRVTITCRASQSVSSYLAWYQQKPGKAPKLLIYDASNRATGVPSRFSGSGSGTDFTLTISSLQPEDFATYYCQQRSNWPWTFGQGTKVEIKR
notes: as for B1
[1]
  binding result: no binding (tested: 20 ug/mL)
[2]
  binding result: no binding (tested: 33.3 nM)

B3: [xTL1A]-0347 (antibody, human IgG1, kappa, V domains shown)
VH: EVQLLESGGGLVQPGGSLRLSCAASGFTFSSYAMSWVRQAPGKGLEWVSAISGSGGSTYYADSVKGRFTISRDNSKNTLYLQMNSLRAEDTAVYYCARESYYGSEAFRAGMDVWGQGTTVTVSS
VL: DIQMTQSPSSLSASVGDRVTITCRASQSVSSYLAWYQQKPGKAPKLLIYDASNRATGVPSRFSGSGSGTDFTLTISSLQPEDFATYYCQQRSNWPWTFGQGTKVEIKR
notes: as for B1
[1]
  binding result: no binding (tested: 20 ug/mL)
[2]
  binding result: no binding (tested: 33.3 nM)

B4: [xTL1A]-0338 (antibody, human IgG1, kappa, V domains shown)
VH: QVQLVQSGAEVKKPGASVKVSCKASGYTFTSYGISWVRQAPGQGLEWMGWISAYNGNTNYAQKLQGRVTMTTDTSTSTAYMELRSLRSDDTAVYYCARESSYGSEAFRGGMDVWGQGTTVTVSS
VL: DIQMTQSPSSLSASVGDRVTITCRASQSVSSYLAWYQQKPGKAPKLLIYDASNRATGVPSRFSGSGSGTDFTLTISSLQPEDFATYYCQQRSNWPWTFGQGTKVEIKR
notes: as for B1
[1]
  binding result: no binding (tested: 20 ug/mL)
[2]
  binding result: no binding (tested: 33.3 nM)

B5: [xTL1A]-0349 (antibody, human IgG1, kappa, V domains shown)
VH: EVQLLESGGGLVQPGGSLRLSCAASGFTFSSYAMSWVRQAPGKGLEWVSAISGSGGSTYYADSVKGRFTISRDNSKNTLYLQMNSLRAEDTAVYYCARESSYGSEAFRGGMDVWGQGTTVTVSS
VL: DIQMTQSPSSLSASVGDRVTITCRASQSVSSYLAWYQQKPGKAPKLLIYDASNRATGVPSRFSGSGSGTDFTLTISSLQPEDFATYYCQQRSNWPWTFGQGTKVEIKR
notes: as for B1
[1]
  binding result: no binding (tested: 20 ug/mL)
[2]
  binding result: no binding (tested: 33.3 nM)

B6: TL1A-0373 (bispecific antibody)
heavy 1: QVQLVQSGAEVKKPGASVKVSCKASGYDYTYYGISWVRQAPGQGLEWMGWISTYNTGTHYAPSLQGRVTMTTDTSTSTAYMELRSLRSDDTAVYYCARESYYGSGAFRGGMDVWGQGTTVTVSSASTKGPSVFPLAPSSKSTSGGTAALGCLVKDYFPEPVTVSWNSGALTSGVHTFPAVLQSSGLYSLSSVVTVPSSSLGTQTYICNVNHKPSNTKVDKKVEPKSCDKTHTCPPCPAPEAAGAPSVFLFPPKPKDTLMISRTPEVTCVVVDVSHEDPEVKFNWYVDGVEVHNAKTKPREEQYNSTYRVVSVLTVLHQDWLNGKEYKCKVSNKALPAPIEKTISKAKGQPREPQVCTLPPSREEMTKNQVSLWCLVKGFYPSDIAVEWESNGQPENNYKTTPPVLDSDGSFFLYSKLTVDKSRWQQGNVFSCSVLHEALHSHYTQKSLSLSPGK
heavy 2: not shown
light: not shown
notes: not shown: human IgG1 constant region with effector-minimizing, KiH and LS mutations
[3]
  Kd: 285 pM
  koff: 4.95e-05 s⁻¹
  kon: 173000 M⁻¹ s⁻¹
[4]
  binding result: no binding (tested: 1e-6 M)
[5]
  NFκB Bioassay IC50: 1660 pM
[6]
  binding result: no binding (tested: 1e-6 M)

B7: TL1A-0374 (bispecific antibody)
heavy 1: QVQLVQSGAEVKKPGASVKVSCKASGYDYTYYGISWVRQAPGQGLEWMGWISTYNTGTHYAPSLQGRVTMTTDTSTSTAYMELRSLRSDDTAVYYCARESYYGSGAFRGGMDVWGQGTTVTVSSASTKGPSVFPLAPSSKSTSGGTAALGCLVKDYFPEPVTVSWNSGALTSGVHTFPAVLQSSGLYSLSSVVTVPSSSLGTQTYICNVNHKPSNTKVDKKVEPKSCDKTHTCPPCPAPEAAGAPSVFLFPPKPKDTLMISRTPEVTCVVVDVSHEDPEVKFNWYVDGVEVHNAKTKPREEQYNSTYRVVSVLTVLHQDWLNGKEYKCKVSNKALPAPIEKTISKAKGQPREPQVCTLPPSREEMTKNQVSLWCLVKGFYPSDIAVEWESNGQPENNYKTTPPVLDSDGSFFLYSKLTVDKSRWQQGNVFSCSVLHEALHSHYTQKSLSLSPGK
heavy 2: not shown
light: not shown
notes: also called TL1A-0374 MBsAb; not shown: human IgG1 constant region with effector-minimizing, KiH and LS mutations
[3]
  Kd: 268 pM
  koff: 5.59e-05 s⁻¹
  kon: 209000 M⁻¹ s⁻¹
[4]
  binding result: no binding (tested: 1e-6 M)
[5]
  NFκB Bioassay IC50: 1490 pM
[6]
  binding result: no binding (tested: 1e-6 M)

B8: TL1A-0326 (antibody, human IgG1, kappa)
heavy 1: QVQLVQSGAEVKKPGASVKVSCKASGYDYTYYGISWVRQAPGQGLEWMGWISTYNTGTHYAPSLQGRVTMTTDTSTSTAYMELRSLRSDDTAVYYCARESYYGSGAFRGGMDVWGQGTTVTVSSASTKGPSVFPLAPSSKSTSGGTAALGCLVKDYFPEPVTVSWNSGALTSGVHTFPAVLQSSGLYSLSSVVTVPSSSLGTQTYICNVNHKPSNTKVDKKVEPKSCDKTHTCPPCPAPEAAGAPSVFLFPPKPKDTLMISRTPEVTCVVVDVSHEDPEVKFNWYVDGVEVHNAKTKPREEQYNSTYRVVSVLTVLHQDWLNGKEYKCKVSNKALPAPIEKTISKAKGQPREPQVCTLPPSREEMTKNQVSLWCLVKGFYPSDIAVEWESNGQPENNYKTTPPVLDSDGSFFLYSKLTVDKSRWQQGNVFSCSVLHEALHSHYTQKSLSLSPGK
heavy 2: EPKSSDKTHTCPPCPAPEAAGAPSVFLFPPKPKDTLMISRTPEVTCVVVDVSHEDPEVKFNWYVDGVEVHNAKTKPREEQYNSTYRVVSVLTVLHQDWLNGKEYKCKVSNKALPAPIEKTISKAKGQPREPQVYTLPPCREEMTKNQVSLSCAVKGFYPSDIAVEWESNGQPENNYKTTPPVLDSDGSFFLVSKLTVDKSRWQQGNVFSCSVLHEALHSHYTQKSLSLSPGK
light: not shown
notes: one-armed (monovalent) antibody derived from TL1A-0260
[3]
  Kd: 292 pM
  koff: 5.84e-05 s⁻¹
  kon: 200000 M⁻¹ s⁻¹
[4]
  binding result: no binding (tested: 1e-6 M)
[5]
  NFκB Bioassay IC50: 1280 pM
[6]
  binding result: no binding (tested: 1e-6 M)

B9: TL1A-0375 (bispecific antibody)
heavy 1: QVQLVQSGAEVKKPGASVKVSCKASGYDYTYYGISWVRQAPGQGLEWMGWISTYNTGTHYAPSLQGRVTMTTDTSTSTAYMELRSLRSDDTAVYYCARESYYGSGAFRGGMDVWGQGTTVTVSSASTKGPSVFPLAPSSKSTSGGTAALGCLVKDYFPEPVTVSWNSGALTSGVHTFPAVLQSSGLYSLSSVVTVPSSSLGTQTYICNVNHKPSNTKVDKKVEPKSCDKTHTCPPCPAPEAAGAPSVFLFPPKPKDTLMISRTPEVTCVVVDVSHEDPEVKFNWYVDGVEVHNAKTKPREEQYNSTYRVVSVLTVLHQDWLNGKEYKCKVSNKALPAPIEKTISKAKGQPREPQVCTLPPSREEMTKNQVSLWCLVKGFYPSDIAVEWESNGQPENNYKTTPPVLDSDGSFFLYSKLTVDKSRWQQGNVFSCSVLHEALHSHYTQKSLSLSPGK
heavy 2: not shown
light: not shown
notes: also called TL1A-0375 MBsAb; not shown: human IgG1 constant region with effector-minimizing, KiH and LS mutations
[3]
  Kd: 232 pM
  koff: 4.9e-05 s⁻¹
  kon: 211000 M⁻¹ s⁻¹
[4]
  binding result: no binding (tested: 1e-6 M)
[5]
  NFκB Bioassay IC50: 1350 pM
[6]
  binding result: no binding (tested: 1e-6 M)
